Residues, ends and D or L forms follow the SMILES beside them. *: point of attachment. X1 = CC1(C)C(/C=C/C=C/C=C/C=C2/N(CCCCCC(=O)NCCN3C(=O)CC(*)C3=O)c3ccc4ccccc4c3C2(C)C)=[N+](CCCCS(=O)(=O)[O-])c2ccc3ccccc3c21
What was measured:
[1] = in vivo; settings: female, BALB/cAcNHsd, mouse, iv, 2.5 nmol, 4 hours post injection, constant up to 16 hours, rough estimation, read-out: amount of ICG-pHLIP in tumors
Experimental: The fluorescence signals in organs and tissue were also measured in the tissue/organ homogenates and compared with the signals from the control tissue/organ homogenates (collected from control mice) mixed with known amounts of ICG-pHLIP. About 100 mg of tissue (tumor, liver or kidney) were homogenized with 2.5× (about 250 μL) volumes of DMSO using BioMasher II disposable homogenizers (DiagnoCine LLC). 30 μl of homogenate was placed into 384 well plate and imaged using an Odyssey IR scanner. Tumor, liver or kidney homogenates of control mice, mixed with known concentrations of ICG-pHLIP were used to establish the calibration curve. First, note that the fluorescence signals obtained on the control tumor, liver and kidney mixed with the known amounts of ICG-pHLIP were the same. Second, the course of signal changes in tumor, liver and kidney (data not shown) was in excellent correlation with the course of the kinetics presented on FIGS. 18A-F. It is rather difficult to establish precisely the amount of ICG-pHLIP in the tissue and organ samples; however, rough estimations can be made using the calibration curve. […] At 26 hours, when the blood is cleared and the fluorescence signal in all organs is minimal, the contrast between tumor and surrounding tissue is very significant.

[2] = tested on: Human mammary epithelial cells (HMEpC); assay: Cytotoxicity of ICG-pHLIP; assay type: cell-based; settings: 0.125 to 16 μM, 48 and 72 hours
Experimental: Human mammary epithelial cells (HMEpC) were acquired from Cell Applications Inc, and authenticated, and stored according to supplier's instructions. Cells were cultured in mammary epithelial cell growth medium provided by Cell Applications Inc. HMEpC cells were loaded in the wells of 96-well plates (˜6,000 cells per well) and incubated overnight. The increasing amounts of ICG-pHLIP dissolved in cell growth medium were added to cells to have the following final concentration of ICG-pHLIP with cells: 0.125, 0.25, 0.5, 1, 2, 4, 8 and 16 μM. After 48 and 72 hours of incubation, a colorimetric reagent (CellTiter 96 AQueous One Solution Assay, Promega) was added for 1 hour followed by measuring absorbance at 490 nm to assess cell viability. All samples were prepared in triplicate and each experiment was repeated several times.

[3] = tested on: red blood cells (RBCs); assay: Hemolysis assay with ICG-pHLIP; assay type: cell-based, human; settings: 0.075 to 1.2 nmol in 150 μL, 37° C., 2 hours
Experimental: Single donor human whole blood was purchased from Innovative Research. Red blood cells (RBCs) were collected by centrifugation of whole blood at 2000 rpm for 10 minutes followed by washing three times with Dulbecco's PBS (DPBS) and re-suspended in DPBS at a concentration of 7.5% (v:v). Varying concentrations of ICG-pHLIP (0.075, 0.15, 0.3, 0.6, 1.2 nmol) in DPBS were added to RBCs to give a 5% RBC suspension (total volume of solution with RBC was 150 μL). The resultant mixtures were incubated at 37° C. for 2 hours and then centrifuged at 2000 rpm for 10 min. Hemolysis was assessed by the release of hemoglobin, which was monitored by measuring the absorbance at 450 nm of the supernatant hemoglobin. DPBS was used as negative controls. As positive controls, which result in 100% lysis of RBCs, we used i) water and ii) 10% of Triton X-100. The percentage of hemolysis was calculated as follows: […]
where, ODTest, ODNC, and ODPC are the optical density reading (absorbance) values of the test sample, negative control and positive control, respectively. The assay was performed in triplicate. The amount of RBC lysis was less than 2% in all samples. For the reference, in mice study 2.5 nmol of ICG pHLIP® is injected per mouse (a 20 g mouse has about 1.2 mL of blood), or 2.08 nmol/ml (the dose will be much lower in humans), while in hemolysis assay the maximum tested concentration was 8 nmol/ml.

For `CC(C)C[C@H](NC(=O)[C@H](Cc1ccc(O)cc1)NC(=O)[C@H](C)NC(=O)[C@H](CCCNC(=N)N)NC(=O)[C@H](Cc1c[nH]c2ccccc12)NC(=O)[C@@H]1CCCN1C(=O)[C@H](CC(N)=O)NC(=O)[C@H](CCC(N)=O)NC(=O)[C@H](CC(=O)O)NC(=O)[C@H](CC(=O)O)NC(=O)[C@H](CSC1CC(=O)N(CCNC(=O)CCCCCN2/C(=C/C=C/C=C/C=C/C3=[N+](CCCCS(=O)(=O)[O-])c4ccc5ccccc5c4C3(C)C)C(C)(C)c3c2ccc2ccccc32)C1=O)NC(=O)[C@H](C)N)C(=O)N[C@@H](CC(=O)O)C(=O)N[C@@H](CC(C)C)C(=O)N[C@@H](CC(C)C)C(=O)N[C@@H](Cc1ccccc1)C(=O)N1CCC[C@H]1C(=O)N[C@H](C(=O)N[C@@H](CC(=O)O)C(=O)N[C@H](C(=O)N[C@@H](CC(C)C)C(=O)N[C@@H](CC(C)C)C(=O)N[C@@H](CC(C)C)C(=O)N[C@@H](CC(=O)O)C(=O)N[C@@H](CC(C)C)C(=O)N[C@@H](CC(C)C)C(=O)N[C@@H](Cc1c[nH]c2ccccc12)C(=O)N[C@@H](C)C(=O)O)[C@@H](C)O)[C@@H](C)O` (stereo partly drawn) [ICG-pHLIP] (H-AC(X1)DDQNPWRAYLDLLFPTDTLLLDLLWA-OH), the tissue uptake [1] was 10 to 15 %ID/g, the cytotoxic effect [2] was “did not show any cytotoxic effect” and the RBC lysis [3] was “less than 2%”.
